Laboratory results: patent US20240150473A1, “MODULATION OF WNT SIGNALING IN GASTROINTESTINAL DISORDERS” (Surrozen Operating, Inc., priority 2021, published 2024)

Experiments:
[1] = test system: Mouse small intestinal organoids; assay: Organoid culture and proliferation assay; type: cell-based; details: organoids treated with Porcupine inhibitor IWP2
Experimental: Mouse small intestinal organoids were maintained in mouse IntestiCult™ Organoid Growth Medium ([…] technologies) and passaged once a week until the date of assay for Wnt mimetic activity (H. Chen, Lu, Lee, & Li, 2020). To assay for organoid proliferation, organoids were dissociated with Gentle Cell Dissociation Reagent ([…] technologies) for 10 min with shaking, washed 2× in cold PBS (Gibco) and resuspended 1:1 in Matrigel (Corning) on ice. 25 ul of cell resuspension in Matrigel was seeded to the center of each well on a prewarmed 48-well tissue culture plate and let solidify for 5 min at 37 degrees. 300 ul of Basal Media (Table 10), Basal Media+IWP2+anti-βGal or Basal Media+IWP2+Wnt mimetic was applied to the wells. Each condition included 5-6 repeats. Media and treatments were changed once on Day 4 after plating. Images of the 3D cultured organoids were acquired on Day 7.
Mouse small intestinal organoids were treated with the Porcupine inhibitor IWP2 to inhibit endogenous Wnt ligand secretion in the cultured organoid. When these organoids were subject to no protein treatment or were treated with a control anti-β-gal IgG, the organoids were not maintained and quickly degenerated.

[2] = test system: DSS induced acute colitis in C57BL6/J mice; assay: DSS induced acute colitis model; type: in vivo, mouse
Experimental: 7- to 8-week-old female C57BL6/J mice were fed with 4% (wt/vol) Dextran Sulfate Sodium (DSS, MP Biomedicals, molecular weight 36-50 kDa, Ref #160110) in drinking water from day 1 to day 7 to induce colitis and were switched to 1% DSS from day 8. […] Animals were terminated on day 10, allowing a 6-day course of protein treatment, and the colon was harvested for histology and RT-qPCR. […] The disease activity index (DAI) was calculated based on the average score of weight loss, stool consistency and the degree of intestinal bleeding (Wirtz Stefan et al., 2017). Scoring system by grading was on a scale of 0 to 4 using the following parameters: loss of weight (0, 0-1%; 1, 1-6%; 2, 6-12%; 3, 12-18%; 4, >18%), stool consistency (0, normal; 1, soft but still formed; 2, soft; 3, very soft, wet; 4, watery diarrhea) and intestine bleeding (0-1, negative hemoccult; 2, positive hemoccult; 3, blood traces in stool visible; 4, gross rectal bleeding).
Small intestine and colon were extracted and, after removing fecal content, weighted and length measured. The desired small intestine segments (duodenum, jejunum, ileum) and colon segments (ascending, transverse and descending colon) were cut out and fixed directly in 10% neutral buffered formalin (NBF) overnight. Tissues were then transferred to 70% ethanol before paraffin embedding. Paraffin tissue blocks were then sectioned to […] thickness and stained with hematoxylin and eosin (H&E) for histology analysis. Pathology reading was performed by an independent pathologist.
[…] Groups of mice were either untreated, treated with an isotype control antibody (anti-GFP), or treated with the indicated engineered Wnt agonist once on day 4 or twice on day 4 and 7. […]
The 123 mice total were grouped: (Day3=13, day4=13, day5=26, day6=24, day7=26, day10=21), with 91 used for histology endpoints, and 21 for scRNA-seq (group eliminated because of machinery). Daily food intake, BW, fecal score, and occult blood were measured. […]

[3] = test system: colon tissue markers (ZO-1, Ki67, Axin2, Cdkn3, S100A9, CD45); assay: RNA in situ hybridization and immunohistochemistry/immunofluorescence of colon tissue, DSS model; type: in vivo, mouse; details: day 10 of the DSS model
Excerpt: Expression of mRNA was detected by RNAscope in situ hybridization (ACD Bio). RNAscope probes used are listed below. For colorimetric visualization, standard RNAscope® 2.5 HD Assay-Red protocol (www.acdbio.com) was followed, and images were acquired on a Leica DMi8 microscope equipped with a DFC7000T color camera. For fluorescent RNAscope in situ hybridization, standard RNAscope Multiplex Fluorescent Reagent Kit v2 Assay protocol was followed (ACD Bio Document #323100-USM) and coupled with the TSA Plus Cyanine 3 and 5 Systems. Fluorescent images were acquired with a Leica Thunder imaging system.
In brief, five-micron thick formalin fixed paraffin embedded tissue sections on slides were deparaffinized followed by citrate buffer (pH 6) antigen retrieval in a steamer. Slides were then washed thoroughly in tap water followed by 1× wash in PBST. Subsequently, tissue sections were blocked with serum free protein block (Agilent, X090930-2) for one hour at room temperature followed by incubation in primary antibodies. After primary antibody incubation, tissue sections were washed in 0.1% TX-100 in PBS (PBST) at least three times followed by incubation in secondary antibody. Afterwards, tissue sections were washed with PBST, and coverslips were mounted with Vectashield Vibrance antifade mounting medium with DAPI (Vector Laboratories, H-1800).

B1: R2M3-26: Fzd1,2,5,7,8 pan specific Wnt mimetic targeting FZD1,2,5,7,8 and LRP6 (protein)
light: DVQLVESGGGLVQAGGSLRLACAGSGRIFAIYDIAWYRHPPGNQRELVAMIRPVVTEIDYADSVKGRFTISRNNAMKTVYLQMNNLKPEDTAVYYCNAKRPWGSRDEYWGQGTQVTVSSGSGSGQAVVLQEPSLSVSPGGTVTLTCGLSSGSVSTNYYPSWYQQTPGQAPRTLIYYTNTRSSDVPERFSGSIVGNKAALTITGAQPDDESVYFCLLYLGRGIWVFGGGTKLTVLGQPKAAPSVTLFPPSSEELQANKATLVCLISDFYPGAVTVAWKADSSPVKAGVETTTPSKQSNNKYAASSYLSLTPEQWKSHRSYSCQVTHEGSTVEKTVAPTECS
heavy: EVQLVQSGAEVKKPGASVKVSCKASGYTFTSYGISWVRQAPGQGLEWMGWISAYNGNTNYAQKLQGRVTMTTDTSTSTAYMELRSLRSDDTAVYYCASSKEKATYYYGMDVWGQGTTVTVSSASTKGPSVFPLAPSSKSTSGGTAALGCLVKDYFPEPVTVSWNSGALTSGVHTFPAVLQSSGLYSLSSVVTVPSSSLGTQTYICNVNHKPSNTKVDKKVEPKSCDKTHTCPPCPAPEAAGGPSVFLFPPKPKDTLMISRTPEVTCVVVDVSHEDPEVKFNWYVDGVEVHNAKTKPREEQYNSTYRVVSVLTVLHQDWLNGKEYKCKVSNKALGAPIEKTISKAKGQPREPQVYTLPPSREEMTKNQVSLTCLVKGFYPSDIAVEWESNGQPENNYKTTPPVLDSDGSFFLYSKLTVDKSRWQQGNVFSCSVMHEALHNHYTQKSLSLSPGK
organoid proliferation and growth [1]: able to stimulate cell proliferation | histology (colitis) score ([2]; two doses day 4 and day 7, evaluated day 10, reduced from 4.75, see WO 2020/185960A1): 2.0 | crypt architecture and tissue inflammation ([2]; two doses day 4 and day 7, evaluated day 10, versus PBS or anti-GFP): restored crypt architecture with less tissue inflammation | Ki67 expression in duodenum and colon [3]: did not lead to an expansion of Ki67

B2: RSPO2: R-spondin 2, ligand that amplifies WNT signals (protein, UniProt Q6UXX9 22-243, looked up)
R-spondin-2: QGNRWRRSKRASYVSNPICKGCLSCSKDNGCSRCQQKLFFFLRREGMRQYGECLHSCPSGYYGHRAPDMNRCARCRIENCDSCFSKDFCTKCKVGFYLHRGRCFDECPDGFAPLEETMECVEGCEVGHWSEWGTCSRNNRTCGFKWGLETRTRQIVKKPVKDTILCPTIAESRRCKMTMRHCPGGKRTPKAKEKRNKKKKRKLIERAQEQHSVFLATDRANQ
repair of damaged colon epithelium / colon histology ([2]; IP twice weekly or daily starting on day 4 of DSS): less significant as compared to the effect of R2M3-26 | Ki67 expression in duodenum and colon [3]: expansion of Ki67 expression
